Laboratory results as given in patent US20180155399A1.

T1: murine TFPI 1-160 (mouse), O54819
T1 chain: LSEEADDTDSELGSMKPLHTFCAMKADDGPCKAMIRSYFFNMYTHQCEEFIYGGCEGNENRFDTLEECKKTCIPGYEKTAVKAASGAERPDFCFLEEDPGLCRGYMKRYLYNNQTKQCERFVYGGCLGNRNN


Target: T1, murine TFPI 1-160 (mouse), O54819
Test: cell-based or functional assay
Conditions: not given

Question: SYYKWHCAMRDMKGTMTCVWVKF (modifications not checked) [JBT1837] was tested. Which FXa inhibition assay did it give?
Answer: Its FXa inhibition assay is > 10 µM.

target: T2, human Tissue Factor Pathway Inhibitor-1α (TFPI-1α) (human), P10646; test: not given; conditions: modification not given
T2 sequence (P10646 29-304): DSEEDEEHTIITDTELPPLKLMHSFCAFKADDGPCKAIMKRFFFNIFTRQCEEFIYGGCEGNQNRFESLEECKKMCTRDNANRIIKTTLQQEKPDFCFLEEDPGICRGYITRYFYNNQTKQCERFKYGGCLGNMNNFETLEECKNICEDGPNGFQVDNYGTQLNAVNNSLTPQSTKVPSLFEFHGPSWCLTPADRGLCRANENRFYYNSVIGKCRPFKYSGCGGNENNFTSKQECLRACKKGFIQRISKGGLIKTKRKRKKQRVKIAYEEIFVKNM

Question: FQSKGNVFVTGYFARLRAKL [JBT0720] was tested. Which EC50 did it give?
Answer: The EC50 was 220 nM.

target: T2, human Tissue Factor Pathway …; test: competition; conditions: modification not given

Question: FQSKKNVFVFFYFERLRAKL [JBT0576] was tested. Which IC50 did it give?
Answer: Its IC50 is > 1670 nM.

Question: For FQSKKLVFVFGYFERLRAKL [JBT0606], which IC50 is on record?
Answer: Its IC50 is > 5000 nM.

Question: FQSKKNVFDFGYFERLRAKL [JBT0592] was tested. Which IC50 did it give?
Answer: Its IC50 is > 5000 nM.

Question: Which IC50 does the source give for FQSKLNVFVFGYFERLRAKL [JBT0605] here?
Answer: The IC50 was > 1670 nM.

Question: Which IC50 does the source give for FQSKGNVFVFAYFERLRAKL [JBT0525] here?
Answer: The IC50 was > 5000 nM.

Question: For FQSVGNVFVDGYFERLSAKL [JBT1278], which IC50 is on record?
Answer: Its IC50 is 73 nM.

Question: FLSKKNVFVFGYFERLRAKL [JBT0602] was tested. Which IC50 did it give?
Answer: The IC50 was > 5000 nM.

Question: Which IC50 does the source give for FQFKKNVFVFGYFERLRAKL [JBT0571] here?
Answer: Its IC50 is > 5000 nM.

Question: Which IC50 does the source give for FQSKKFVFVFGYFERLRAKL [JBT0574] here?
Answer: The IC50 was > 5000 nM.

Question: How did the IC50 turn out when FQSKKNVFVFGYFEFLRAKL [JBT0579] was run?
Answer: The IC50 was > 5000 nM.

Question: Which IC50 does the source give for FQSKGDVFVFGYFERLRAKL [JBT0520] here?
Answer: The IC50 was 188 nM.

Question: For FQSKKNDFVFGYFERLRAKL [JBT0590], which IC50 is on record?
Answer: The IC50 was > 5000 nM.

Question: For FQSKGNVFVAGYFARLRAKL [JBT0806], which IC50 is on record?
Answer: Its IC50 is 42 nM.

Question: For FQSKKNVFVFGYFERLDAKL [JBT0598], which IC50 is on record?
Answer: The IC50 was > 5000 nM.

Question: For FQSKGNVFVFGYFDRLRAKL [JBT0528], which IC50 is on record?
Answer: The IC50 was 107 nM.

Question: FQSFKNVFVFGYFERLRAKL [JBT0572] was tested. Which IC50 did it give?
Answer: The IC50 was > 5000 nM.

Question: Which IC50 does the source give for LKARLREFYGFVFVNKKSQF [JBT0783] here?
Answer: Its IC50 is > 1670 nM.

Question: Which IC50 does the source give for FQSKKNVFVFGYFERLFAKL [JBT0581] here?
Answer: Its IC50 is > 5000 nM.

Question: Which IC50 does the source give for FQSKNNVFVHGYFERLRAKL [JBT0487] here?
Answer: The IC50 was 40 nM.

Question: Which IC50 does the source give for FQSKGNVFVTGYFARLRAKL [JBT0720] here?
Answer: Its IC50 is 27 nM.

Question: How did the IC50 turn out when FQSKFNVFVFGYFERLRAKL [JBT0573] was run?
Answer: The IC50 was 1370 nM.

Question: How did the IC50 turn out when FDSKKNVFVFGYFERLRAKL [JBT0586] was run?
Answer: Its IC50 is > 1670 nM.

Question: Which IC50 does the source give for FQSKKNVFVFGYFERDRAKL [JBT0597] here?
Answer: The IC50 was > 5000 nM.

Question: FQSKKNVFVFGYFERLRAFL [JBT0583] was tested. Which IC50 did it give?
Answer: The IC50 was > 5000 nM.

Question: How did the IC50 turn out when FQSKKNVDVFGYFERLRAKL [JBT0591] was run?
Answer: The IC50 was > 5000 nM.

Question: FQSKKNVFVFGYFERFRAKL [JBT0580] was tested. Which IC50 did it give?
Answer: Its IC50 is > 5000 nM.

Question: How did the IC50 turn out when FQLKKNVFVFGYFERLRAKL [JBT0603] was run?
Answer: Its IC50 is > 5000 nM.

Question: For FQSKKNVFVFGFFERLRAKL [JBT0577], which IC50 is on record?
Answer: Its IC50 is > 5000 nM.

Question: With FQSKKNVFVFGDFERLRAKL [JBT0594] as the binder, how does the IC50 read?
Answer: Its IC50 is > 5000 nM.

Question: With FQSDKNVFVFGYFERLRAKL [JBT0588] as the binder, how does the IC50 read?
Answer: The IC50 was > 5000 nM.

Question: Which IC50 does the source give for FESKGNVFVFGYFERLRAKL [JBT0516] here?
Answer: Its IC50 is 1190 nM.

Question: How did the IC50 turn out when FQSKKNVFVFGYFERLRFKL [JBT0582] was run?
Answer: The IC50 was > 5000 nM.

Question: How did the IC50 turn out when FFSKKNVFVFGYFERLRAKL [JBT0570] was run?
Answer: The IC50 was > 5000 nM.

Question: With AQSKGNVFVFGYFERLRAKL [JBT0497] as the binder, how does the IC50 read?
Answer: Its IC50 is 100 nM.

Question: For FQSLKNVFVFGYFERLRAKL [JBT0604], which IC50 is on record?
Answer: The IC50 was > 1670 nM.
